Assays:
[1] = target: T1, A2 subunit of factor VIIIa (Homo sapiens, UniProt P00451); experiment: EC50 (functional Kd) of interaction of factor IXa proteins with A2 subunit, factor Xa generation (S-2222); type: biochemical; details: 5 nM factor IXa, 250 nM factor X, 25 μM PL, 5 mM CaCl2 (FIG. 1)
T1 construct: cleaved by thrombin at R372-S373, R740-S741, and R1689-S1690 to yield factor VIIIa
T1 sequence (P00451 392-759): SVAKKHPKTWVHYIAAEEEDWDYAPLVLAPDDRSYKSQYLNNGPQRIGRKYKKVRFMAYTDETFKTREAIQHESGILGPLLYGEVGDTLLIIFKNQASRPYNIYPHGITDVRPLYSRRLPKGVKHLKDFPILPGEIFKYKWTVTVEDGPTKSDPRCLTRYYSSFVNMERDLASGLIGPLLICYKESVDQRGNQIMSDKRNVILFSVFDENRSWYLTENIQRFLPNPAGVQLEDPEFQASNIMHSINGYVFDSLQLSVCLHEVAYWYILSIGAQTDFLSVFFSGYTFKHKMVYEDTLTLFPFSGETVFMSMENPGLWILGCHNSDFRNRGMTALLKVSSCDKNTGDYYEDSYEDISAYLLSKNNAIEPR
Description: Determination of EC50 of Interaction of Factor IXa Proteins with A2 Subunit.
The EC50 (functional Kd) of binding of each factor IXa protein with A2 subunit was measured essentially as described previously for its interaction with intact factor VIIIa (Mather and Bajaj, 1999; Mather et al., 1997). For these experiments, concentrations of factor IXa and factor X were kept constant, and the rates of formation of factor Xa were determined at increasing concentrations of A2 subunit. Reaction mixtures contained 5 nM IXa protein, 250 nM factor X, 25 μM PL and various concentrations of A2 subunit in TBS/BSA, pH 7.5 containing 5 mM CaCl2. Reactions were carried out at 37° C. for 5-20 minutes and stopped by adding 1 μL of 500 mM EDTA. The amount of factor Xa generated was determined by S-2222 hydrolysis as described previously (Mather and Bajaj, 1999; Mather et al., 1997). The EC50 was obtained by fitting the data to a single site ligand binding equation (Eq. 1) by non-linear regression analysis using the program GraFit from Erithacus Software. [formula]
Where V is the rate of formation of factor Xa at a given concentration of the A2 subunit, denoted by L, and Vmax is the rate of factor Xa formation by the factor IXa:A2 subunit complex. EC50 is the functional Kd defined as the concentration of free A2 subunit yielding 50% of the Vmax. The background rate of factor Xa generation was obtained by carrying out the reaction in the absence of the A2 subunit.

[2] = target: T1, A2 subunit of factor VIIIa; experiment: Apparent KdA2 of dEGR-IXa proteins: inhibition of IXaWT:A2 subunit interaction in the tenase system; type: biochemical; details: for Kd: values from FIG. 3, read-out: App KdA2; for ΔG°A2: ΔG° = RTlnKd, 298 Kelvin
Description: Determination of KdA2 of Binding of dEGR-IXa Proteins to A2 Subunit.
The apparent Kd (termed KdA2) for binding of each dEGR-IXa protein to the A2 subunit was determined by its ability to inhibit factor IXaWT:A2 subunit interaction in the tenase complex as described earlier for intact factor VIIIa (Mather and Bajaj, 1999; Mather et al., 1997). The reactions were carried out as described for the EC50 experiments above except dEGR-IXa and IXaWT were mixed prior to addition of the A2 subunit; this ensured steady state conditions. Mixtures contained 100 nM IXaWT, 30 nM A2 subunit, 250 nM factor X, 25 μM PL, and various concentrations of dEGR-IXa proteins in TBS/BSA, pH 7.5 containing 5 mM CaCl2. The IC50 (concentration of inhibitor required for 50% inhibition) was determined by fitting the data to the IC50 four-parameter logistic equation of Halfman (1981) given below (Eq. 2). [formula]
where y is the rate of Xa formation in the presence of a given concentration of dEGR-IXa protein represented by x, a is the maximum rate of factor Xa formation in the absence of dEGR-IXa, and s is the slope factor. Each point was weighted equally, and the data were fitted to Equation 2 using the nonlinear regression analysis program GraFit from Erithacus Software. […] To obtain KdA2 values for the interaction of dEGR-IXa proteins with A2, we used the following equation (Eq. 3) as described by Cheng and Prusoff (1973) and further elaborated by Craig (1993). [formula]
where A is the concentration of IXaWT, and EC50 is the concentration of factor IXaWT that gives a 50% maximum response in the absence of the competitor at a specified concentration of factor X used in the experiment.

Ability of the A2 subunit to enhance/potentiate the factor X-activating activity of the IXa protein [1] | EC50 (functional Kd), apparent Kd of interaction with the A2 subunit, single site-binding model [1] | Change in ΔG°A2 between the mutant and WT [2] | Fold-change in apparent KdA2 (mutant/WT) [2] | Kd [2] | ΔG°A2 [2] | EC50 ([1]; read-out: EC50 (functional Kd), apparent Kd of interaction with the A2 subunit, single site-binding model) | Substance
severely impaired | could not be calculated | 7.2 kJ/mol | ~15 | 1.85 ± 0.082 µM | 32.7 kJ/mol |  | IXaR333Q: activated factor IX point mutant in which Arg333 is replaced by Gln
 |  |  |  | 0.1 ± 0.011 µM | 39.9 kJ/mol | 0.257 ± 0.031 µM | IXaWT: activated recombinant wild-type factor IX (IXWT)
